Assay [1] deals with RSV postfusion F (postF), F deltaFP (respiratory syncytial virus, UniProt P03420 26-513). The assay is described as follows: BLI, IgG on sensor, 100 nM antigen.
The target of assay [2] is RSV prefusion F (preF), DS-Cav1 (respiratory syncytial virus, UniProt P03420 26-513). In words: BLI, IgG on sensor, 100 nM antigen.
The target of assay [3] is RSV fusion glycoprotein (RSV F) on RSV-A2 virus (respiratory syncytial virus, UniProt P03420 26-574). The assay is described as follows: cell-based or functional assay.
Assay [4] concerns the target RSV F on RSV subtype A virus (RSV-A2) (Respiratory Syncytial Virus, subtype A, …, UniProt P03420 26-574). The assay is described as follows: cell-based or functional assay.

B1: ADI-41436 (antibody, V domains shown)
VH: EVQLLESGGGVVQPGRSLRLSCAASGFTFSDYAMHWVRQAPGKGLEWVALISFDGSNEYYADSVKGRFTISRDNSRNTVYLQVNTLRPDDTAVFYCARDSHLRLTTRGWGSFDYWGQGTLVTVSS
VL: NFMLTQPHSVSESPGKTVTIACTRSSGSIARNYVQWYQQRPGRSPTMVIYEDNQRPSGVPDRFSGSIDTSSNSASLTISGLKTEDEADYYCQPYDPDNLVFGGGTKLTVL
notes: IgG1; also called Ab 720
For the molecule B1, the values for the dissociation constant (Kd) in assay [1] and in assay [2] were 0.237 nM and 1.1 nM, respectively. In assay [3], the “Neutralization IC50 (RSV subtype A)” value is more than 25 µg/mL.

B2: ADI-41829 (antibody, V domains shown)
VH: EVQLVESGGGLVKPGGSLRLSCAASGFTSSGYNMNWVRQAPGKGLEWVSSISGSSSYIHYADSVKGRFTISRDNAKNSLYLQMNSLRAEDTAVYYCATVGALPGHFDNWGQGTLVTVSS
VL: QAVVTQEPSVSGAPGQRVTISCTGSSSNIGAGYDVHWYQQLPGTAPKLLIYDNTNRPSGVPDRFSGSKSGTSASLAITGLQAEDEADYYCQSYDSRLTYVFGTGTKVTVL
As for B2, the “Neutralization IC50 (RSV subtype A)” value in assay [4] was 0.12 µg/mL.

B3: ADI-41440 (antibody, V domains shown)
VH: EVQLVESGGGLVKPGGSLRLSCAVSGFTFSDYTMNWVRQAPGKGLEWVSSISGSGTYIYYGDSVKGQFTISRDNAKNSLYLQMNSLRAEDTAVYYCARELPAKTIFGVDFLGGTTAYDCWGQGTPVTVSS
VL: EIVLTQSPATLSVSPGERATLSCRASQSVSSNLAWYQQKPGQAPRLLIYSATTRATGVPARFSGSGSGTEFTLTISSLRSEDFAVYYCQQYNNGGTFGPGTKVEIK
notes: IgG1; also called Ab 724
On to B3, for which the dissociation constant Kd is 1.23 nM in assay [1] and 3.18 nM in assay [2]. Moreover, in assay [3], the “Neutralization IC50 (RSV subtype A)” value is more than 25 µg/mL.

B4: ADI-41445 (antibody, V domains shown)
VH: QVQLVQSGAEVKRPGSSVKVSCKAFGGSFSNYAINWVRQAPGQGLEWMGGISPVLGTAIYAKRFQGKVTITADKFANTAYMDLSSLRFEDTAVYYCARSPPHVEFPLTKWFDPWGQGTLVTVSS
VL: EIVMTQSPGTLSLSPGERATLSCRASQSVNSGYLAWYQHKPGRAPRLLIYGASNRATGVPDRFSGSGSGTDFTLTISRLEPEDFAVYYCQQYDNSLFTFGPGTKVDIK
notes: IgG1
As for B4, the dissociation constant (Kd) in assay [1] was 0.772 nM; in assay [2] it was 3.04 nM. Besides, the “Neutralization IC50 (RSV subtype A)” value in assay [3] was more than 25 µg/mL.

B5: ADI-41446 (antibody, V domains shown)
VH: EVQLLESGGGLVQPGGSLRLSCAASGFTYYSYAMNWVRQAPGKGLEWVSAISGGGDNTFYAESVKGRFTISRDNAKNTLYLQMDSLRAEDTAVYYCAKDLQGYTSLYCFDYWGQGTLVTVSS
VL: EIVMTQSPATLSLSPGERAALSCRASQSVFNYVAWYQQKPGQAPRLLIYDTSKRATGIPARFSGSGSGTDFTLTISSLEPEDFAVYYCQHRYNWPGLIFGGGTKVEIK
notes: IgG1; also called Ab 730
On to B5, for which the dissociation constant (Kd) in assay [1] was 0.722 nM; in assay [2] it was 3.6 nM. Further, the “Neutralization IC50 (RSV subtype A)” value in assay [3] is more than 25 µg/mL.

B6: ADI-41453 (antibody, V domains shown)
VH: QVQLVQSGAEVRKPGASVKVSCKASGYTFSIYDMNWVRQAPGQGLEWMGWMNPNSGNTGYAQKFQGRVTMTGDTSISTAYMELSSLTSEDTAVYYCAVMYGDYPGYWGQGSLVTVSS
VL: SYELTQPLSVSVALGQTARITCGGNNIGSKSVHWYQQKPGQAPVLVIYRDAKRPSGIPERFSGSNSGNTATLTISGAQAGDEADYYCQVWDSNAWIFGGRTKLTVL
notes: IgG1; also called Ab 737
Take B6: the values for the equilibrium dissociation constant (Kd) in assay [1] and in assay [2] were 0.403 nM and 2.17 nM, respectively. Besides, the “Neutralization IC50 (RSV subtype A)” value in assay [3] was more than 25 µg/mL.

B7: ADI-41443 (antibody, V domains shown)
VH: EVQLVESGGGVVQPGKSLRLSCAASGFTFSSYAMHWVRQAPGKGLEWVSVIWYEDSDKYYGDSVKGRFTISRDNSKNTLYLQMNSLRAEDTAVYYCARKSGGFGGLDYWGQGTLVTVSS
VL: DIVMTQSPLSLPVTPGEPASISCKSSQSLLTANGYNYLDWYVQKPGQSPHVLISLGSNRASGVPDRFSGSGSGTDFTLKISRVEAEDVGVYYCMQAIETPITFGQGTRLEIK
notes: IgG1; also called Ab 727
In the case of B7, the dissociation constant (Kd) worked out at 0.373 nM in assay [1] and 2.4 nM in assay [2]. Besides, the “Neutralization IC50 (RSV subtype A)” value in assay [3] is more than 25 µg/mL.

B8: ADI-41831 (antibody, V domains shown)
VH: EVQLLESGGGLVKPGGSLRLSCAASGFTFSSYAMHWVRQPPGKGLEWVSSISASSSFINYADSVKGRFTISRDGARNSLYLQMNSLRAEDTAVYYCVREDYDSSGYGLHWFDPWGQGTTVTVSS
VL: SYVLTQPPSVSGAPGQRVTISCTGSSSNIGAGYDVHWYQQFPGTAPKLLMYGNTNRPSGVPDRFSGSKSGTSASLAITGLQAEDEADYYCQSYDRSLSGWVFGGGTKLTVL
As to B8, in assay [4], the “Neutralization IC50 (RSV subtype A)” value was found to be 5.21 µg/mL.

B9: ADI-41444 (antibody, V domains shown)
VH: EVQLVESGPRLVKPSQTLSLTCTVSGGSIGTGDYHWTWIRQSPGKGLEWIGNIYYNGRTFYNPSLKGRGSISRDASKNQFSLNLSSVSAADTAVYYCARDRAAKGFDHWGQGTLVTVSS
VL: DIQLTQSPSTLSASVGDRVTITCRASQNINGWLAWYQQKPGRVPKLLIYKASTLESGVPSRFSGSASGTEFTLTINNLLPDDFATYYCQQYNDYPYTFGQGTKVEIK
notes: IgG1
Turning to B9, the dissociation constant Kd was 0.541 nM in assay [1] and 3.01 nM in assay [2]. Moreover, the “Neutralization IC50 (RSV subtype A)” value in assay [3] was more than 25 µg/mL.

B10: ADI-41451 (antibody, V domains shown)
VH: EVQLVESGGGLVQPGGSLRLSCAAAGFTFNNYEMHWVRQAPGKGLEWVSCVTSSGTATYYADSVKGRFTVSRDNAKKSLQLQMNSLRAEDTAVYYCARELYLGEDYYYGLDVWGQGTTVTVSS
VL: SYELTQPPSVSVSPGQTASISCSGDKLRNKHTCWYQHKSGQSPVLLIYQDNRRPSGIPDRLSGSKSGTTATLTISWTQAMDEAEYYCQAWDSNSAVIFGGGTKLTVL
notes: IgG1; also called Ab 735
Turning to B10, the results for the dissociation constant Kd in assay [1] and in assay [2] were 1.67 nM and 1.82 nM, respectively. In assay [3], the “Neutralization IC50 (RSV subtype A)” value came out at 0.84 µg/mL.

B11: ADI-41448 (antibody, V domains shown)
VH: TVQLVESGAEVKSPGSSVRVSCQASGGSSNSYAISWVRQAPGQGLEWMGMISPLFGTTRFSQRFQGRVTITADKSTSTAYMELSSLNSEDTALYYCARGRFDFWSGPTRFYYTMDVWGQGTMVTVSS
VL: QSVLIQPASVSGSPGQSITISCSGTSSDIGGYNYVSWYQQHPGKAPKLLISDVTDRPSGISDRFSGSKSGTSASLTISGLQADDEADYYCTSYTTSSTWVFGGGTKLTVL
notes: IgG1
As to B11, the Kd in assay [1] is 0.428 nM; in assay [2] it was 2.75 nM. Further, the “Neutralization IC50 (RSV subtype A)” value in assay [3] is more than 25 µg/mL.

B12: ADI-41816 (antibody, V domains shown)
VH: QVQLVQSGAEVKKPGASVKVSCEASGYTFTDSYIHWVRQAPGQGLEWMGWINPNSGGTNYAQKFQGRVTMTRDTSTSTAFIELSRLRSDDTAVYYSARGVRQQWLVNTGDPDYYFDFWGQGTLVTVSS
VL: SYVLTQPPSVSVSPGQTASITCSGDKLGDKYSCWYQQKPGQSPVLVIYQDYKRPSGIPERFSGSNSGNTATLTISGTQAMDEADYYCQAWDRNAGVFGTGTKLTVL
Turning to B12, the “Neutralization IC50 (RSV subtype A)” value in assay [4] was determined as 0.91 µg/mL.

B13: ADI-41830 (antibody, V domains shown)
VH: QVQLVQSGPAVKKPGASVKVSCKASGYIFTSYGVSWVRQAPGQGLEWMGWISGYNGNTDYAQKFQGRVTLTVDSSTGTVYMDLRSLRSDDTAIYYCARAPPLPGQVYDGAGSYLLHGYWGQGTLVTVSS
VL: not shown
With B13, the “Neutralization IC50 (RSV subtype A)” value in assay [4] is 0.12 µg/mL.

B14: ADI-41432 (antibody, V domains shown)
VH: QVQLVQSGAEVKKPGYSVKVSCKASGGTFSTFGISWVRQAPGLGLEWMGGIIPLFGTADYSKKYQGRVTITADESTSTGYMELNSLTPEDTAVYYCARSPGHLWSRYDAFEVWGQGTTVTVSS
VL: QPVLTQPRSVSGSPGQSVTISCSGTSSDVGGYNYVSWYQQYPGKAPKLIIYDVNKRPSGVPDRFSGSKSDNTASLTISGLQADDESDYFCCSYAGSHTFEVFGTGTKVTVL
notes: IgG1
Consider B14, for which the values for the Kd in assay [1] and in assay [2] were 0.286 nM and 2.05 nM, respectively. Moreover, the “Neutralization IC50 (RSV subtype A)” value in assay [3] was more than 25 µg/mL.

As usually defined, the Kd is the free concentration of one partner at which half of the binding sites on the other are occupied at equilibrium, for simple one-to-one binding. Low values mean tighter binding, high ones weaker binding.

The values are drawn from patent US20260258115A1 (MAPP BIOPHARMACEUTICAL, published 2026).
